Key:
[1] = biological target: T1, extracellular domain of mIFNgR2 (mouse); assay: flow cytometry, cross-reactivity
T1 construct: also called mIFNgR2 ECD; mouse IFNgR2 extracellular domain
T1 chain: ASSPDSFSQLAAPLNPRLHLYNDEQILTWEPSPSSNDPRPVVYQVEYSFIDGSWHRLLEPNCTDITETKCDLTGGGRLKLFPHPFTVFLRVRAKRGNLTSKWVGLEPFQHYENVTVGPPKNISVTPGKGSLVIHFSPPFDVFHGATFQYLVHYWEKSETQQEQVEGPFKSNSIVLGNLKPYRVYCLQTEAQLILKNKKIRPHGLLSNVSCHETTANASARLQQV

[2] = biological target: T2, extracellular domain of hIFNgR2 (human, UniProt P38484 28-247); assay: phage biopanning and periplasmic extract ELISA (PE-ELISA)
T2 construct: also called hIFNgR2 ECD; hIFNgR2-ECD
T2 sequence: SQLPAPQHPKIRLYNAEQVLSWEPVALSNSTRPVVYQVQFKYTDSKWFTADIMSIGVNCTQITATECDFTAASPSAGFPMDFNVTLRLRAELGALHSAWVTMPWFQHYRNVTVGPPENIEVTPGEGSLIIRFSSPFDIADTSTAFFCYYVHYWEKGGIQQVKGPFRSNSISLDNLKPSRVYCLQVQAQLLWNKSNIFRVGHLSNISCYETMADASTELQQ
Description: Upon completion of the biopanning of Example 3, three 96-well plates of individual phage clones were isolated in order to perform periplasmic extract ELISA (PE-ELISA) on IFNgR2 coated plates to identify positive VHH binders that selectively bound IFNgR2. A 96-well plate was coated with IFNgR2 and PBS under the same conditions. Next, wells were blocked at 37° C. for 1 h. Then, 100 μl of extracted antibodies was added to each well and incubated for 1 h. Subsequently, 100 μl of anti-tag polyclonal antibody conjugated to HRP was added to each well and incubated at 37° C. for 1 h. Plates were developed with TMB substrate. The reaction was stopped by the addition of H2SO4. Absorbance at 450 nm was read on a microtiter plate reader. Antibodies with absorbance of the antigen-coated well at least threefold greater than PBS-coated control were considered to provide specific binding to IFNgR2. Positive clones were sequenced, and sequences analyzed to identify unique clonotypes

B1: DR940 (VHH)
VHH: EVQLVESGGRLVQTGGSLRLSCAASGRTFSNYAMGWFRQAPGKEREFVAAISWYSGNTYYADSVKGRFTISRDNAKNTMYLQMNSLKPEDTAVYYCAANQIATMISVGDYWGQGTLVTVSS
B1: binds [1]; binds [2].

B2: DR936 (VHH)
VHH: EVQLVESGGGLVQAGGSLRLSCAASGRTFSSVAMAWFRQAPGKEREFVSAISSGGGSTDYADSVKGRFTISKDNAKNTMYLQMDSLKPEDTAVYYCAARDYSSRRYYQSRYEYDLWGLGTQVTVSS
B2: binds [1]; binds [2].

B3: DR937 (VHH)
VHH: QVQLVESGGGLVQPGGSLRLSCAASGRTFRSYSMGWFRQAPGKEREFVAAISWYSGTTYYADPVKGRFTISRDDAKNTLYLQMNSLKPEDTAVYYCAANEIATMESSNDYWGQGTQVTVSS
B3: binds [1]; binds [2].

B4: DR938 (VHH)
VHH: QVQLVESGGGLVQPGGSLRLSCTASGRPRTTYAMGWFRQAPGKEREIVAAISKAGGSTYVADSAKGRFAISKDNAKNTVYLQMNSLKPEDTAVYYCAARAGFAAQIFEYDYWGQGTLVTVSS
B4: binds [1]; binds [2].

B5: DR942 (VHH)
VHH: QVQLVESGGGLVQAGGSLRLSCVASGRTFTGYAMGWFRQAPGKEREFVAVITWSGATTYYSASVKGRFTLSRDNAKNTVYLQMNSLKSEDTAVYYCAIRIRDGVSPENPNEYGYWGQGTQVTVSS
B5: binds [1]; binds [2].

B6: DR943 (VHH)
VHH: QVQLVESGGGLVQAGGSLRLSCVASGRTVGYGMAWFRQAPGKQRDVVAAITWSGTSTYYPDSVKGRFTISRDNAKNTMYLQMSSLKPEDTAVYYCAAGSRRRVGVDVGGYDYWGQGTQVTVSS
B6: binds [1]; binds [2].

B7: DR927 (VHH)
VHH: QVQLVESGGGLVQAGGSLRLSCAASGRTFTSYAMNWFRQAPGKEREFVAAISWSSGNTYVADSVKGRFAISRDKAKNTMYLQMNSLAPEDTAVYYCAATTIATMSDEYTYWGQGTQVTVSS
B7: binds [1]; binds [2].

B8: DR944 (VHH)
VHH: QVQLVESGGGLVQAGDSLRLSCAASGRTFTFSTHNMGWFRQAPGKEREFVGGIMWTSRASYADSVKGRFTVSRDNAKNTVYLQMNSLKPEDTAVYYCAAAWYGNSGASYDYWGQGTQVTVSS
B8: binds [1]; binds [2].

B9: DR941 (VHH)
VHH: QVQLVESGGGLVEAGGSLRLACAASGSIFRLNLMGWYRQAPGKQRELVAHVGTTGNTAYADSVKGRFTISKDDAKNMVFLQMNSLKPEDTAVYYCYADRWGQFSWGQGTQVTVSS
B9: binds [1]; binds [2].

B10: DR939 (VHH)
VHH: EVQLVESGGGLVQAGGSMRLSCANSGRTFGTYAMGWFRQSPGKERERVASIDRDGSMSYYADSVKGRFTISGDNAKNTVYLQMNSLKPEDTAVYYCAASRRAVISLQTVDYWGQGTQVTVSS
B10: binds [2].

B11: DR928 (VHH)
VHH: QVQLVESGGGLVQAGGSLRLSCAASGRTFSNYRMGWFRQAPGKEREFVAAISRGGGTTLYADSVKGRFTISRDNAKNTVDLQMNRLKPEDTAVYFCAAGDFSTTWDEYNYWGQGTQVTVSS
B11: binds [1]; binds [2].

B12: DR945 (VHH)
VHH: LVESGGGLVQLVQAGGSLRLSCAASGRTFSGYNMGWFRQAPGKEREFVAAIAWAGSRTYYTDSVKGRFTISRDNAKNTMYLQMNTLRPEDTAVYYCAAHDETYYRLDRVDLYTHWGQGTQVTVSS
B12: binds [1]; binds [2].

From US20230279128A1 (SYNTHEKINE, published 2023)
